Laboratory results as given in patent publication US20150344570A1 (published 2015).

T1: FcγRIIa R (human, UniProt P12318 34-217)
T1 construct: extracellular domain; also called FcgRIIa R type; 2aR
T1 sequence (looked up): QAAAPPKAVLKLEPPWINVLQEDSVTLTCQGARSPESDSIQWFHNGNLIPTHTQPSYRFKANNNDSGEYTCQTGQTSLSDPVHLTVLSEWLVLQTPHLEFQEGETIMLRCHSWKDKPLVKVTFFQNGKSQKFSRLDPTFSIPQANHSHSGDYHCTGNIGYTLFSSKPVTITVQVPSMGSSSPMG


Molecular target: T1, FcγRIIa R
Assay: SPR (Biacore), captured antibody, FcγR as analyte; relative binding activity
Protocol: Analysis of interaction between objective antibody and the FcγR was carried out using Biacore T100 (GE Healthcare). HBS-EP+ (GE Healthcare) was used as the running buffer, and the measurement temperature was set to 25° C. Chips produced by immobilizing the antigen peptide by the amine coupling method to a Series S Sencor Chip CM5 (GE Healthcare), or alternatively, chips produced by allowing preliminarily biotinylated antigen peptides to interact with and immobilize onto a Series S Sensor Chip SA (certified) (GE Healthcare) were used. Antibodies of interest were captured onto an antigen peptide-immobilized chip, and allowed to interact to each FcγR diluted with running buffer. To regenerate and repeatedly use the chip, the antibodies captured on the chip were washed off by reacting 10 mM glycine-HCl, pH 1.5.

Ho/Con_2aR	Binder
25.5 % (GpH7-B3/GpL16-k0 = 100)	GpH7-B3 variant P238_16H/GpL16-k0 (antibody, human IgG1, kappa, also called Ho Ab P238_16H) heavy: not shown light: DIVMTQSPLSLPVTPGEPASISCQASESLVHSNRNTYLHWYLQKPGQSPQLLIYKVSNRFSGVPDRFSGSGSGTDFTLKISRVEAEDVGVYYCSQNTHVPPTFGQGTKVEIERTVAAPSVFIFPPSDEQLKSGTASVVCLLNNFYPREAKVQWKVDNALQSGNSQESVTEQDSKDSTYSLSSTLTLSKADYEKHKVYACEVTHQGLSSPVTKSFNRGEC
116 % (GpH7-B3/GpL16-k0 = 100)	GpH7-B3 variant P238_03V/GpL16-k0 (antibody, human IgG1, kappa, also called Ho Ab P238_03V) heavy: not shown light: DIVMTQSPLSLPVTPGEPASISCQASESLVHSNRNTYLHWYLQKPGQSPQLLIYKVSNRFSGVPDRFSGSGSGTDFTLKISRVEAEDVGVYYCSQNTHVPPTFGQGTKVEIERTVAAPSVFIFPPSDEQLKSGTASVVCLLNNFYPREAKVQWKVDNALQSGNSQESVTEQDSKDSTYSLSSTLTLSKADYEKHKVYACEVTHQGLSSPVTKSFNRGEC
102 % (GpH7-B3/GpL16-k0 = 100)	GpH7-B3 variant P331_02A/GpL16-k0 (antibody, human IgG1, kappa, also called Ho Ab P331_02A) heavy: not shown light: DIVMTQSPLSLPVTPGEPASISCQASESLVHSNRNTYLHWYLQKPGQSPQLLIYKVSNRFSGVPDRFSGSGSGTDFTLKISRVEAEDVGVYYCSQNTHVPPTFGQGTKVEIERTVAAPSVFIFPPSDEQLKSGTASVVCLLNNFYPREAKVQWKVDNALQSGNSQESVTEQDSKDSTYSLSSTLTLSKADYEKHKVYACEVTHQGLSSPVTKSFNRGEC
60.2 % (GpH7-B3/GpL16-k0 = 100)	GpH7-B3 variant N325_14T/GpL16-k0 (antibody, human IgG1, kappa, also called Ho Ab N325_14T) heavy: not shown light: DIVMTQSPLSLPVTPGEPASISCQASESLVHSNRNTYLHWYLQKPGQSPQLLIYKVSNRFSGVPDRFSGSGSGTDFTLKISRVEAEDVGVYYCSQNTHVPPTFGQGTKVEIERTVAAPSVFIFPPSDEQLKSGTASVVCLLNNFYPREAKVQWKVDNALQSGNSQESVTEQDSKDSTYSLSSTLTLSKADYEKHKVYACEVTHQGLSSPVTKSFNRGEC
19.4 % (GpH7-B3/GpL16-k0 = 100)	GpH7-B3 variant P238_19Q/GpL16-k0 (antibody, human IgG1, kappa, also called Ho Ab P238_19Q) heavy: not shown light: DIVMTQSPLSLPVTPGEPASISCQASESLVHSNRNTYLHWYLQKPGQSPQLLIYKVSNRFSGVPDRFSGSGSGTDFTLKISRVEAEDVGVYYCSQNTHVPPTFGQGTKVEIERTVAAPSVFIFPPSDEQLKSGTASVVCLLNNFYPREAKVQWKVDNALQSGNSQESVTEQDSKDSTYSLSSTLTLSKADYEKHKVYACEVTHQGLSSPVTKSFNRGEC
13 % (GpH7-B3/GpL16-k0 = 100)	GpH7-B3 variant P238_09D/GpL16-k0 (antibody, human IgG1, kappa, also called Ho Ab P238_09D) heavy: not shown light: DIVMTQSPLSLPVTPGEPASISCQASESLVHSNRNTYLHWYLQKPGQSPQLLIYKVSNRFSGVPDRFSGSGSGTDFTLKISRVEAEDVGVYYCSQNTHVPPTFGQGTKVEIERTVAAPSVFIFPPSDEQLKSGTASVVCLLNNFYPREAKVQWKVDNALQSGNSQESVTEQDSKDSTYSLSSTLTLSKADYEKHKVYACEVTHQGLSSPVTKSFNRGEC
56 % (GpH7-B3/GpL16-k0 = 100)	GpH7-B3 variant N325_20W/GpL16-k0 (antibody, human IgG1, kappa, also called Ho Ab N325_20W) heavy: not shown light: DIVMTQSPLSLPVTPGEPASISCQASESLVHSNRNTYLHWYLQKPGQSPQLLIYKVSNRFSGVPDRFSGSGSGTDFTLKISRVEAEDVGVYYCSQNTHVPPTFGQGTKVEIERTVAAPSVFIFPPSDEQLKSGTASVVCLLNNFYPREAKVQWKVDNALQSGNSQESVTEQDSKDSTYSLSSTLTLSKADYEKHKVYACEVTHQGLSSPVTKSFNRGEC
25.7 % (GpH7-B3/GpL16-k0 = 100)	GpH7-B3 variant P238_20W/GpL16-k0 (antibody, human IgG1, kappa, also called Ho Ab P238_20W) heavy: not shown light: DIVMTQSPLSLPVTPGEPASISCQASESLVHSNRNTYLHWYLQKPGQSPQLLIYKVSNRFSGVPDRFSGSGSGTDFTLKISRVEAEDVGVYYCSQNTHVPPTFGQGTKVEIERTVAAPSVFIFPPSDEQLKSGTASVVCLLNNFYPREAKVQWKVDNALQSGNSQESVTEQDSKDSTYSLSSTLTLSKADYEKHKVYACEVTHQGLSSPVTKSFNRGEC

The next lines start with the binder.

Binder	Ho/Con_2aR
GpH7-B3 variant N325_08L/GpL16-k0 (antibody, human IgG1, kappa, also called Ho Ab N325_08L) heavy: not shown light: DIVMTQSPLSLPVTPGEPASISCQASESLVHSNRNTYLHWYLQKPGQSPQLLIYKVSNRFSGVPDRFSGSGSGTDFTLKISRVEAEDVGVYYCSQNTHVPPTFGQGTKVEIERTVAAPSVFIFPPSDEQLKSGTASVVCLLNNFYPREAKVQWKVDNALQSGNSQESVTEQDSKDSTYSLSSTLTLSKADYEKHKVYACEVTHQGLSSPVTKSFNRGEC	95 % (GpH7-B3/GpL16-k0 = 100)
GpH7-B3 variant P238_06M/GpL16-k0 (antibody, human IgG1, kappa, also called Ho Ab P238_06M) heavy: not shown light: DIVMTQSPLSLPVTPGEPASISCQASESLVHSNRNTYLHWYLQKPGQSPQLLIYKVSNRFSGVPDRFSGSGSGTDFTLKISRVEAEDVGVYYCSQNTHVPPTFGQGTKVEIERTVAAPSVFIFPPSDEQLKSGTASVVCLLNNFYPREAKVQWKVDNALQSGNSQESVTEQDSKDSTYSLSSTLTLSKADYEKHKVYACEVTHQGLSSPVTKSFNRGEC	88.9 % (GpH7-B3/GpL16-k0 = 100)
GpH7-B3 variant P271_09D/GpL16-k0 (antibody, human IgG1, kappa, also called Ho Ab P271_09D) heavy: not shown light: DIVMTQSPLSLPVTPGEPASISCQASESLVHSNRNTYLHWYLQKPGQSPQLLIYKVSNRFSGVPDRFSGSGSGTDFTLKISRVEAEDVGVYYCSQNTHVPPTFGQGTKVEIERTVAAPSVFIFPPSDEQLKSGTASVVCLLNNFYPREAKVQWKVDNALQSGNSQESVTEQDSKDSTYSLSSTLTLSKADYEKHKVYACEVTHQGLSSPVTKSFNRGEC	92.4 % (GpH7-B3/GpL16-k0 = 100)
GpH7-B3 variant P271_10E/GpL16-k0 (antibody, human IgG1, kappa, also called Ho Ab P271_10E) heavy: not shown light: DIVMTQSPLSLPVTPGEPASISCQASESLVHSNRNTYLHWYLQKPGQSPQLLIYKVSNRFSGVPDRFSGSGSGTDFTLKISRVEAEDVGVYYCSQNTHVPPTFGQGTKVEIERTVAAPSVFIFPPSDEQLKSGTASVVCLLNNFYPREAKVQWKVDNALQSGNSQESVTEQDSKDSTYSLSSTLTLSKADYEKHKVYACEVTHQGLSSPVTKSFNRGEC	88.8 % (GpH7-B3/GpL16-k0 = 100)
GpH7-B3 variant N325_09D/GpL16-k0 (antibody, human IgG1, kappa, also called Ho Ab N325_09D) heavy: not shown light: DIVMTQSPLSLPVTPGEPASISCQASESLVHSNRNTYLHWYLQKPGQSPQLLIYKVSNRFSGVPDRFSGSGSGTDFTLKISRVEAEDVGVYYCSQNTHVPPTFGQGTKVEIERTVAAPSVFIFPPSDEQLKSGTASVVCLLNNFYPREAKVQWKVDNALQSGNSQESVTEQDSKDSTYSLSSTLTLSKADYEKHKVYACEVTHQGLSSPVTKSFNRGEC	74.8 % (GpH7-B3/GpL16-k0 = 100)
GpH7-B3 variant P331_03V/GpL16-k0 (antibody, human IgG1, kappa, also called Ho Ab P331_03V) heavy: not shown light: DIVMTQSPLSLPVTPGEPASISCQASESLVHSNRNTYLHWYLQKPGQSPQLLIYKVSNRFSGVPDRFSGSGSGTDFTLKISRVEAEDVGVYYCSQNTHVPPTFGQGTKVEIERTVAAPSVFIFPPSDEQLKSGTASVVCLLNNFYPREAKVQWKVDNALQSGNSQESVTEQDSKDSTYSLSSTLTLSKADYEKHKVYACEVTHQGLSSPVTKSFNRGEC	89.1 % (GpH7-B3/GpL16-k0 = 100)
GpH7-B3 variant N325_13S/GpL16-k0 (antibody, human IgG1, kappa, also called Ho Ab N325_13S) heavy: not shown light: DIVMTQSPLSLPVTPGEPASISCQASESLVHSNRNTYLHWYLQKPGQSPQLLIYKVSNRFSGVPDRFSGSGSGTDFTLKISRVEAEDVGVYYCSQNTHVPPTFGQGTKVEIERTVAAPSVFIFPPSDEQLKSGTASVVCLLNNFYPREAKVQWKVDNALQSGNSQESVTEQDSKDSTYSLSSTLTLSKADYEKHKVYACEVTHQGLSSPVTKSFNRGEC	126 % (GpH7-B3/GpL16-k0 = 100)
GpH7-B3 variant P238_15Y/GpL16-k0 (antibody, human IgG1, kappa, also called Ho Ab P238_15Y) heavy: not shown light: DIVMTQSPLSLPVTPGEPASISCQASESLVHSNRNTYLHWYLQKPGQSPQLLIYKVSNRFSGVPDRFSGSGSGTDFTLKISRVEAEDVGVYYCSQNTHVPPTFGQGTKVEIERTVAAPSVFIFPPSDEQLKSGTASVVCLLNNFYPREAKVQWKVDNALQSGNSQESVTEQDSKDSTYSLSSTLTLSKADYEKHKVYACEVTHQGLSSPVTKSFNRGEC	95.9 % (GpH7-B3/GpL16-k0 = 100)
GpH7-B3 variant N325_15Y/GpL16-k0 (antibody, human IgG1, kappa, also called Ho Ab N325_15Y) heavy: not shown light: DIVMTQSPLSLPVTPGEPASISCQASESLVHSNRNTYLHWYLQKPGQSPQLLIYKVSNRFSGVPDRFSGSGSGTDFTLKISRVEAEDVGVYYCSQNTHVPPTFGQGTKVEIERTVAAPSVFIFPPSDEQLKSGTASVVCLLNNFYPREAKVQWKVDNALQSGNSQESVTEQDSKDSTYSLSSTLTLSKADYEKHKVYACEVTHQGLSSPVTKSFNRGEC	42.6 % (GpH7-B3/GpL16-k0 = 100)
GpH7-B3 variant P238_04F/GpL16-k0 (antibody, human IgG1, kappa, also called Ho Ab P238_04F) heavy: not shown light: DIVMTQSPLSLPVTPGEPASISCQASESLVHSNRNTYLHWYLQKPGQSPQLLIYKVSNRFSGVPDRFSGSGSGTDFTLKISRVEAEDVGVYYCSQNTHVPPTFGQGTKVEIERTVAAPSVFIFPPSDEQLKSGTASVVCLLNNFYPREAKVQWKVDNALQSGNSQESVTEQDSKDSTYSLSSTLTLSKADYEKHKVYACEVTHQGLSSPVTKSFNRGEC	146 % (GpH7-B3/GpL16-k0 = 100)
GpH7-B3 variant N325_10E/GpL16-k0 (antibody, human IgG1, kappa, also called Ho Ab N325_10E) heavy: not shown light: DIVMTQSPLSLPVTPGEPASISCQASESLVHSNRNTYLHWYLQKPGQSPQLLIYKVSNRFSGVPDRFSGSGSGTDFTLKISRVEAEDVGVYYCSQNTHVPPTFGQGTKVEIERTVAAPSVFIFPPSDEQLKSGTASVVCLLNNFYPREAKVQWKVDNALQSGNSQESVTEQDSKDSTYSLSSTLTLSKADYEKHKVYACEVTHQGLSSPVTKSFNRGEC	49.9 % (GpH7-B3/GpL16-k0 = 100)
GpH7-B3 variant P271_08L/GpL16-k0 (antibody, human IgG1, kappa, also called Ho Ab P271_08L) heavy: not shown light: DIVMTQSPLSLPVTPGEPASISCQASESLVHSNRNTYLHWYLQKPGQSPQLLIYKVSNRFSGVPDRFSGSGSGTDFTLKISRVEAEDVGVYYCSQNTHVPPTFGQGTKVEIERTVAAPSVFIFPPSDEQLKSGTASVVCLLNNFYPREAKVQWKVDNALQSGNSQESVTEQDSKDSTYSLSSTLTLSKADYEKHKVYACEVTHQGLSSPVTKSFNRGEC	102 % (GpH7-B3/GpL16-k0 = 100)
GpH7-B3 variant P238_10E/GpL16-k0 (antibody, human IgG1, kappa, also called Ho Ab P238_10E) heavy: not shown light: DIVMTQSPLSLPVTPGEPASISCQASESLVHSNRNTYLHWYLQKPGQSPQLLIYKVSNRFSGVPDRFSGSGSGTDFTLKISRVEAEDVGVYYCSQNTHVPPTFGQGTKVEIERTVAAPSVFIFPPSDEQLKSGTASVVCLLNNFYPREAKVQWKVDNALQSGNSQESVTEQDSKDSTYSLSSTLTLSKADYEKHKVYACEVTHQGLSSPVTKSFNRGEC	21.4 % (GpH7-B3/GpL16-k0 = 100)
